Measurements from IntAct's records for PubMed 15020713.

B1: EH domain-containing protein 1 (Homo sapiens), Q9H4M9 (parent)
chain: MFSWVSKDARRKKEPELFQTVAEGLRQLYAQKLLPLEEHYRFHEFHSPALEDADFDNKPMVLLVGQYSTGKTTFIRHLIEQDFPGMRIGPEPTTDSFIAVMHGPTEGVVPGNALVVDPRRPFRKLNAFGNAFLNRFMCAQLPNPVLDSISIIDTPGILSGEKQRISRGYDFAAVLEWFAERVDRIILLFDAHKLDISDEFSEVIKALKNHEDKIRVVLNKADQIETQQLMRVYGALMWSLGKIINTPEVVRVYIGSFWSHPLLIPDNRKLFEAEEQDLFKDIQSLPRNAALRKLNDLIKRARLAKVHAYIISSLKKEMPNVFGKESKKKELVNNLGEIYQKIEREHQISPGDFPSLRKMQELLQTQDFSKFQALKPKLLDTVDDMLANDIARLMVMVRQEESLMPSQVVKGGAFDGTMNGPFGHGYGEGAGEGIDDVEWVVGKDKPTYDEIFYTLSPVNGKITGANAKKEMVKSKLPNTVLGKIWKLADVDKDGLLDDEEFALANHLIKVKLEGHELPADLPPHLVPPSKRRHE
partner: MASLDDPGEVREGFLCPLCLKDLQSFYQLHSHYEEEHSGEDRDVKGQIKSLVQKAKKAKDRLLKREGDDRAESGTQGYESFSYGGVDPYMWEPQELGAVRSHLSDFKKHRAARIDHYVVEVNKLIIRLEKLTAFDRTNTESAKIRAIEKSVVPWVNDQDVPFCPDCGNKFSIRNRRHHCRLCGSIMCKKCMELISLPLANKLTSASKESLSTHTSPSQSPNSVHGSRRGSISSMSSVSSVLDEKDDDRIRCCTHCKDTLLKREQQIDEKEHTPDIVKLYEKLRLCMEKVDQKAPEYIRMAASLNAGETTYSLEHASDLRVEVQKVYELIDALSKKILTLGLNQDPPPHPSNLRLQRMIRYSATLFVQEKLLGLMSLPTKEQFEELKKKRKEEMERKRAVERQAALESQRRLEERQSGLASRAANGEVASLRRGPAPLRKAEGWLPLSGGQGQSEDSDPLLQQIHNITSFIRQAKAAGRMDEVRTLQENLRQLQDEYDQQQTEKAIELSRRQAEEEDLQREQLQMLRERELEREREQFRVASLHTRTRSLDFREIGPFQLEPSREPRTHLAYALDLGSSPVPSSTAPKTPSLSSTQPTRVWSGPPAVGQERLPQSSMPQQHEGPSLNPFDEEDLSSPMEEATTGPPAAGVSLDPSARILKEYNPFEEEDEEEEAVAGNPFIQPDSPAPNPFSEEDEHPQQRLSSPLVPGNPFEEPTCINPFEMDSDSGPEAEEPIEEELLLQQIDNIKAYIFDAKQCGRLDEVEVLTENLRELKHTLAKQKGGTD
B2: Rabenosyn-5 (Homo sapiens), Q9H1K0 (parent)
chain: B1 partner
partner: B1 chain

Variants of: B1
Conditions: with rbns5_human RBSN

effect of a mutation on the interaction	Variant
disrupting interaction	W485A

Variants of: B2
Conditions: with ehd1_human EHD1, Q9H4M9

effect of a mutation on the interaction	Variant
decreasing interaction strength	N626A;F628A
decreasing interaction strength	N662A;F664A
disrupting interaction strength	N626A;F628A;N662A;F664A
